Source: the supplement of paper PMC10567573

B1: CRYL1 (parent)
chain: RNALENIRKEMKLLEQAGSLKGSL

Variants of: B1
Experiment: protein stability index of a GFP-peptide fusion (GPS, HEK-293T) (PSI 1-6); higher = more stable
Details: c terminus: a fixed tail appended
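Further: lentivirally expressed fusions sorted by FACS into six bins by GFP to DsRed ratio, PSI derived from sequencing read proportions per bin multiplied by bin number.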

Variant | protein stability index
RNALENIRKEVKLLEQAGSLKGSL | 3.23
RNALENIRKEWKLLEQAGSLKGSL | 2.21
RNALENIRKELKLLEQAGSLKGSL | 3.1
RNALENIRKERKLLEQAGSLKGSL | 4.01
RNALENIRKEYKLLEQAGSLKGSL | 2.92
RNALENIRKEPKLLEQAGSLKGSL | 4.49
RNALENIRKESKLLEQAGSLKGSL | 4.92
RNALENIRKETKLLEQAGSLKGSL | 4.37
RNALENIRKEQKLLEQAGSLKGSL | 3.93
RNALENIRKEMKLEEQAGSLKGSL | 4.88
RNALENIRKEMKLKEQAGSLKGSL | 4.03
RNALENIRKEMKLSEQAGSLKGSL | 3.77
RNALENIRKEMKLYEQAGSLKGSL | 3.86
RNALENIRKEMKLNEQAGSLKGSL | 4.11
RNALENIRKEMKLDEQAGSLKGSL | 4.36
RNALENIRKEMKLTEQAGSLKGSL | 3.79
RNALENIRKEMKLIEQAGSLKGSL | 3.47
RNALENIRKEMKLQEQAGSLKGSL | 4.18
RNALENIRKEMKLFEQAGSLKGSL | 3.19
RNALENIRKEMKLMEQAGSLKGSL | 2.68
RNALENIRKEMKLCEQAGSLKGSL | 3.39
RNALENIRKEMKLAEQAGSLKGSL | 3.77
RNALENIRKEMKLWEQAGSLKGSL | 3.17
RNALENIRKEMKLREQAGSLKGSL | 3.93

Variant | protein stability index
RNALENIRKEMKLPEQAGSLKGSL | 3.93
RNALENIRKEMKLVEQAGSLKGSL | 3.85
RNALENIRKEMKGLEQAGSLKGSL | 4.1
RNALENIRKEMKELEQAGSLKGSL | 3.94
RNALENIRKEMKSLEQAGSLKGSL | 4.04
RNALENIRKEMKKLEQAGSLKGSL | 3.87
RNALENIRKEMKPLEQAGSLKGSL | 4.52
RNALENIRKEMKQLEQAGSLKGSL | 4.5
RNALENIRKEMKNLEQAGSLKGSL | 3.53
RNALENIRKEMKYLEQAGSLKGSL | 2.98
RNALENIRKEMKILEQAGSLKGSL | 3.77
RNALENIRKEMKHLEQAGSLKGSL | 4.32
RNALENIRKEMKFLEQAGSLKGSL | 2.85
RNALENIRKEMKRLEQAGSLKGSL | 3.66
RNALENIRKEMKALEQAGSLKGSL | 3.89
RNALENIRKEMKDLEQAGSLKGSL | 4.12
RNALENIRKEMKTLEQAGSLKGSL | 3.04
RNALENIRKEMKLLQQAGSLKGSL | 3.57
RNALENIRKEMKLLSQAGSLKGSL | 2.58
RNALENIRKEMKLLFQAGSLKGSL | 2.9
RNALENIRKEMKLLAQAGSLKGSL | 2.17
RNALENIRKEMKLLNQAGSLKGSL | 3.16
RNALENIRKEMKLLVQAGSLKGSL | 2.39
RNALENIRKEMKLLYQAGSLKGSL | 2.21

Variant | protein stability index
RNALENIRKEMKLLPQAGSLKGSL | 3.37
RNALENIRKEMKLLKQAGSLKGSL | 2.48
RNALENIRKEMKLLIQAGSLKGSL | 1.71
RNALENIRKEMKLLGQAGSLKGSL | 3.05
RNALENIRKEMKLLCQAGSLKGSL | 3.2
RNALENIRKEMKLLMQAGSLKGSL | 2.87
RNALENIRKEMKLLDQAGSLKGSL | 3.63
RNALENIRKEMKLLWQAGSLKGSL | 1.49
RNALENIRKEMKLLTQAGSLKGSL | 3.08
RNALENIRKEMKLLHQAGSLKGSL | 2.77
RNALENIRKEMKLLLQAGSLKGSL | 2.16
RNALENIRKEMKLLRQAGSLKGSL | 3.63
RNALENIRKEMKLLEYAGSLKGSL | 2.37
RNALENIRKEMKLLECAGSLKGSL | 3.35
RNALENIRKEMKLLEDAGSLKGSL | 4.1
RNALENIRKEMKLLEAAGSLKGSL | 2.93
RNALENIRKEMKLLESAGSLKGSL | 2.62
RNALENIRKEMKLLEMAGSLKGSL | 2.76
RNALENIRKEMKLLEGAGSLKGSL | 3.7
RNALENIRKEMKLLEVAGSLKGSL | 2.89
RNALENIRKEMKLLEHAGSLKGSL | 3.25
RNALENIRKEMKLLELAGSLKGSL | 2.06
RNALENIRKEMKLLEFAGSLKGSL | 2.71
RNALENIRKEMKLLENAGSLKGSL | 3.75

Variant | protein stability index
RNALENIRKEMKLLEEAGSLKGSL | 3.75
RNALENIRKEMKLLERAGSLKGSL | 2.86
RNALENIRKEMKLLEKAGSLKGSL | 3.02
RNALENIRKEMKLLETAGSLKGSL | 3.01
RNALENIRKEMKLLEPAGSLKGSL | 3.3
RNALENIRKEMKLLEWAGSLKGSL | 2.11
RNALENIRKEMKLLEIAGSLKGSL | 2.76
RNALENIRKEMKLLEQAGRLKGSL | 3.08
RNALENIRKEMKLLEQAGDLKGSL | 3.71
RNALENIRKEMKLLEQAGHLKGSL | 3.04
RNALENIRKEMKLLEQAGTLKGSL | 3.22
RNALENIRKEMKLLEQAGILKGSL | 2.62
RNALENIRKEMKLLEQAGYLKGSL | 2.17
RNALENIRKEMKLLEQAGLLKGSL | 2.36
RNALENIRKEMKLLEQAGKLKGSL | 3.42
RNALENIRKEMKLLEQAGGLKGSL | 3.12
RNALENIRKEMKLLEQAGELKGSL | 4.14
RNALENIRKEMKLLEQAGFLKGSL | 1.9
RNALENIRKEMKLLEQAGVLKGSL | 2.66
RNALENIRKEMKLLEQAGPLKGSL | 3.54
RNALENIRKEMKLLEQAGMLKGSL | 2.56
RNALENIRKEMKLLEQAGALKGSL | 2.51
RNALENIRKEMKLLEQAGQLKGSL | 2.85
RNALENIRKEMKLLEQAGWLKGSL | 2.03

Variant | protein stability index
RNALENIRKEMKLLEQAGNLKGSL | 3.66
RNALENIRKEMKLLEQAGSLGGSL | 2.56
RNALENIRKEMKLLEQAGSLAGSL | 2.71
RNALENIRKEMKLLEQAGSLDGSL | 3.55
RNALENIRKEMKLLEQAGSLEGSL | 3.93
RNALENIRKEMKLLEQAGSLCGSL | 3.3
RNALENIRKEMKLLEQAGSLRGSL | 2.68
RNALENIRKEMKLLEQAGSLIGSL | 2.4
RNALENIRKEMKLLEQAGSLPGSL | 2.79
RNALENIRKEMKLLEQAGSLTGSL | 3.6
RNALENIRKEMKLLEQAGSLQGSL | 3.18
RNALENIRKEMKLLEQAGSLWGSL | 2.17
RNALENIRKEMKLLEQAGSLFGSL | 2.35
RNALENIRKEMKLLEQAGSLSGSL | 3.46
RNALENIRKEMKLLEQAGSLVGSL | 2.73
RNALENIRKEMKLLEQAGSLLGSL | 2.37
RNALENIRKEMKLLEQAGSLYGSL | 2.78
RNALENIRKEMKLLEQAGSLNGSL | 3.34
RNALENIRKEMKLLEQAASLKGSL | 4
RNALENIRKEMKLLEQAQSLKGSL | 3.48
RNALENIRKEMKLLEQALSLKGSL | 1.83
RNALENIRKEMKLLEQARSLKGSL | 3.23
RNALENIRKEMKLLEQATSLKGSL | 3.39
RNALENIRKEMKLLEQADSLKGSL | 3.64

Variant | protein stability index
RNALENIRKEMKLLEQANSLKGSL | 3.84
RNALENIRKEMKLLEQAISLKGSL | 1.98
RNALENIRKEMKLLEQAFSLKGSL | 2.13
RNALENIRKEMKLLEQAYSLKGSL | 2.12
RNALENIRKEMKLLEQASSLKGSL | 3.41
RNALENIRKEMKLLEQAWSLKGSL | 2.37
RNALENIRKEMKLLEQAESLKGSL | 3.58
RNALENIRKEMKLLEQAKSLKGSL | 3.52
RNALENIRKEMKLLEQAHSLKGSL | 3.08
RNALENIRKEMKLLEQAVSLKGSL | 2.8
RNALENIRKEMKLLEQAMSLKGSL | 2.12
RNALENIRKEMKLLEQAPSLKGSL | 4.33
RNALENIRKEMKLLEQAGSLKASL | 3.21
RNALENIRKEMKLLEQAGSLKDSL | 4.1
RNALENIRKEMKLLEQAGSLKCSL | 2.65
RNALENIRKEMKLLEQTGSLKGSL | 3.4
RNALENIRKEMKLLEQNGSLKGSL | 3.62
RNALENIRKEMKLLEQGGSLKGSL | 3.4
RNALENIRKEMKLLEQEGSLKGSL | 3.84
RNALENIRKEMKLLEQDGSLKGSL | 3.97
RNALENIRKEMKLLEQCGSLKGSL | 2.48
RNALENIRKEMKLLEQLGSLKGSL | 3.18
RNALENIRKEMKLLEQMGSLKGSL | 3.32
RNALENIRKEMKLLEQHGSLKGSL | 3.06

Variant | protein stability index
RNALENIRKEMKLLEQWGSLKGSL | 2.33
RNALENIRKEMKLLEQVGSLKGSL | 3.58
RNALENIRKEMKLLEQIGSLKGSL | 2.71
RNALENIRKEMKLLEQKGSLKGSL | 3.51
RNALENIRKEMKLLEQSGSLKGSL | 3.72
RNALENIRKEMKLLEQQGSLKGSL | 4.01
RNALENIRKEMKLLEQFGSLKGSL | 2.22
RNALENIRKEMKLLEQYGSLKGSL | 2.32
RNALENIRKEMKLLEQPGSLKGSL | 3.5
RNALENIRKEMKLLEQRGSLKGSL | 3.38
RNALENIRKEMCLLEQAGSLKGSL | 3.43
RNALENIRKEMYLLEQAGSLKGSL | 3.75
RNALENIRKEMRLLEQAGSLKGSL | 3.06
RNALENIRKEMTLLEQAGSLKGSL | 3.54
RNALENIRKEMLLLEQAGSLKGSL | 3.55
RNALENIRKEMALLEQAGSLKGSL | 3.46
RNALENIRKEMMLLEQAGSLKGSL | 2.89
RNALENIRKEMFLLEQAGSLKGSL | 2.39
RNALENIRKEMHLLEQAGSLKGSL | 3.46
RNALENIRKEMELLEQAGSLKGSL | 3.38
RNALENIRKEMDLLEQAGSLKGSL | 4.23
RNALENIRKEMSLLEQAGSLKGSL | 3.53
RNALENIRKEMPLLEQAGSLKGSL | 4.57
RNALENIRKEMWLLEQAGSLKGSL | 1.72

Variant | protein stability index
RNALENIRKEMILLEQAGSLKGSL | 3.46
RNALENIRKEMNLLEQAGSLKGSL | 3.36
RNALENIRKEMQLLEQAGSLKGSL | 3.31
RNALENIRKEMKLLEQAGSYKGSL | 3.9
RNALENIRKEMKLLEQAGSMKGSL | 2.84
RNALENIRKEMKLLEQAGSFKGSL | 2.86
RNALENIRKEMKLLEQAGSVKGSL | 4.17
RNALENIRKEMKLLEQAGSKKGSL | 4.55
RNALENIRKEMKLLEQAGSRKGSL | 4.17
RNALENIRKEMKLLEQAGSWKGSL | 2.9
RNALENIRKEMKLLEQAGSCKGSL | 3.65
RNALENIRKEMKLLEQAGSGKGSL | 4.08
RNALENIRKEMKLLEQAGSNKGSL | 4.28
RNALENIRKEMKLLEQAGSTKGSL | 3.56
RNALENIRKEMKLLEQAGSQKGSL | 4.71
RNALENIRKEMKLLEQAGSDKGSL | 4.16
RNALENIRKEMKLLEQAGSSKGSL | 3.98
RNALENIRKEMKLLEQAGSHKGSL | 3.99
RNALENIRKEMKLLEQAGSPKGSL | 4.09
RNALENIRKEMKLLEQAGSEKGSL | 4.79
